Reference: the DeepSol protein solubility set

Test: soluble on expression in E. coli; label from the status in PepcDB or PDB records

Row | Sequence | soluble on expression in E. coli
1 | MSLTQTAFRSQLLTFNGDPAQSSQAAIYETDGLLIVDDGKVVAAGPYAQLAATLARDAIVHELRDKLIVPGFIDTHIHYPQTDMIASPAPGLLPWLDKYTFPTERQFGDPEHAREVADFFVDELLACGTTSALVYCTVHKQSADALFAASDARDLRMIAGKVLMDRNCPEFLRDTAQSGYDDSAELIDRWHGKGRQMYALTPRFAPTSTEAQLEACGELARRHPDVFVQSHVAENVDEVKWVGELFPGHRSYLDIYDRYGLLRPRAVYGHCIHLDDEDRRRMAETRTVVAHCPTSNFFLGSGLFDFDKAGEYDVPVTLATDVGGGTSFSMLQTMNEAHKVARLSGHHLTATRMFWLATAGAAQALDLADTVGTLAPRTEADFVVLDPQATPLLARRTKRADSLEELLFAFALLGDDRAVYRTYAAGQLVHERGAAPRPAAEGHHHHHH | soluble
2 | MSLTRDEIAKYYEAHKGQFVSGRKVRLGLVIFPPRDDADALAAQVKSGAMTFADLAARHSIGPNPQNGGVIGDLLWSDLSMEWRDTLSELKPGDVSRVFLVEGRKAVLQLVASNEGKGQALDDVAEEIENILREPKMQERLQEYIGQLRSRAVIDIREGHHHHHH | soluble
3 | MSLTREVGQRREAEETAHKLAHTDPLTGCLNRRSMGPAVEQMVSTARTSGHEVVVMMMDLDNFKRSNDVHGHQAGDAVLLHTADRIRAILPAGSIIARLGGDEFACAAIFDPDHVESIDRLILRMNEAVAMPVRVDGLMLEVTASIGLAATSAADAGAPPALADTLLHRADLAMYQAKKAGRNRYCWFEQNMESELRFRSELEREIREGVARGEFVPYYEKQIDLETGELTGFEMLARWRSPRHGLLSPEIFIPIAEEIGLISELSENLIRQALRDARDWDPTLTLSVNISPIQLRDPWFAQKLLKLLVEANFPPHRLDIEITETCLHENVGVVRTLITSLKNQGIRISLDDFGTGYSSLAQLRTLPFDQIKIDRFFVSNLGKNKDSATIVEAISSLGKGMDLPITAEGIESPEVLDELRKFGKFKGQGFLYGQPGDASEIRAMLADRQLLQQQAEGHHHHHH | soluble
4 | MSLTTVGIRGTFFDFVDDPWKHIGNEQAAARFHQDGLMVVTDGVIKAFGPYEKIAAAHPGVEITHIKDRIIVPGFIDGHIHLPQTRVLGAYGEQLLPWLQKSIYPEEIKYKDRNYAREGVKRFLDALLAAGTTTCQAFTSSSPVATEELFEEASRRNMRVIAGLTGIDRNAPAEFIDTPENFYRDSKRLIAQYHDKGRNLYAITPRFAFGASPELLKACQRLKHEHPDCWVNTHISENPAECSGVLVEHPDCQDYLGVYEKFDLVGPKFSGGHGVYLSNNEFRRMSKKGAAVVFCPCSNLFLGSGLFRLGRATDPEHRVKMSFGTDVGGGNRFSMISVLDDAYKVGMCNNTLLDGSIDPSRKDLAEAERNKLSPYRGFWSVTLGGAEGLYIDDKLGNFEPGKEADFVALDPNGGQLAQPWHQSLIADGAGPRTVDEAASMLFAVMMVGDDRCVDETWVMGKRLYKKSEGHHHHHH | soluble
5 | MSLTVPQSITELDLKNLTNRTFHPSPVAWEDQVLYFLLLDRFSDGKETGYRDNRGRRVAKGETPLYQPGDAGNAIRTEPEAAVWRESGSRWCGGTLKGLASKMGYLKRMGVTAVWVSPLFKQCSFVPTYHGYGIQNFLEVDPHFGTADDLRELVHVAHANGIYVILDIILNHAGNIFAYDRGYTPYDGSTVYPVTGFRSADGTPNLPFGPIDTKANPDAWPDGAVWPRELQAANAYTRMGHIRDWDSYHEYLDGDFFDLKDIHLGEGEVDAFRPSPALLALCEVYKYWIALSDVDGYRIDTVKHMGAGATRFFASVIHEFAQAIGKENFYLIGEITGGRDNAFNTLATTGLNAALGVDDIPLRLEDLVKGRANPADYFNLFRNSLLVRKESHVWFRDKVVTVIDDHDQVCRGAKKERFCAGDPKWRRLVLNALALNTTTLGIPCVYYGTEQAFDGEGGDDRYLRECMFGGPFGAFRTRGVQFFDEENPVYREFAKILALRREKLPLRRGRQYLREISGDGVTFGLPYVIGGEIRSVVPWSRIFDTEEMVLAINTDADSPRTAWVLVDGSLHREGDRFAYRYSTDPGQVRGTTAVQRINDAVQAIQVTVPAAGFVMLEQREGHHHHHH | soluble
6 | MSLTVSARRADAQRNRELILDAAREQLREPGELKMNAVAKACGIGQGTLYRHFPTREDLLVEVYRHDVEELVAAASDMVSTRSPVEALAGWFERVAAYARVKNHVFAAVEAATWRDLAAHSLGPIGEAVELLLAAGRAEGSMRADVEARDVIVLIGWLSRLDDTELDERGPRLLSVLLDGLRTPQGEGHHHHHH | soluble
7 | MSLTYPYRTTMALNTYQYRETTMIDPKKIEQIARQVHESMPKGIREFGEDVEKKIRQTLQAQLTRLDLVSREEFDVQTQVLLRTREKLALLEQRISELENRSTEIKKQPDPETLPPTLEGGSHHHHHH | soluble
8 | MSLTYYLSIDYGGTNTKALIFDKLGHQIAVSSFETLKNETQSGHRQVNLVKTWNAITSAIREVIQISKLSPEQISAVACIGHGKGLYLLDNKLEPLEQGILSTDNRAKDLAQYFESKLDNIWELTRQHIFPSQSPVILRWLKDYQPETYKSIGAVLSAKDFIRYKLTGKVQQEYGDASGNHWINFQTGTYDPAILDFFGIREIENSLPELIDSADLVPGGISSQAAKETGLVEGTPVVGGLFDIDACALGSGVLESDTFSVISGTWNINTYPSLKPAKQDSGLMTSYFPDRRYLLEASSPTSAGNLNFMLKMLMHQEIDNAKSSGGSIYDNLEEFLTHTDATHHGLIFFPFLYGSNTSQDASACFFGLTTKSTKSQMIRAVYEGIAFAHKQHITDLIKSRGSVPKIIRFSGGATNSPAWMQMFSDILNFPIETVEGTELGGLGGAILARHALDKISLKEAVQDMVRVKAIYKPQLSEVKGYKKKYHAYQKLLETLDPIWSELGHLNEGHHHHHH | soluble
9 | MSLVAMITTVVGSYPVVKKEETFLDKVKKVFGLYDEYKYAIERAVKDQVKAGVNIISDGQVRGDMVEIFTNNMYGFDGKRVVGRVEFIKPITLKDILYAKSIAKKLNPNVEIKGIITGPCTIASSVRVESCYSDNRDENLIYDIAKALRKEVEALKKHVPIIQIDEPILSTGMYDFDVARKAIDIIVDGLNIKFAMHVCGNVYNIIDELNKFNVDILDHEFASNKKNLVILESMEKKVGFGCVNTKVKKVESVEEIKSLIEEGIEILKNNEKLNKNLSDNILIDPDCGMRLLPIDVAFNKLKNMVEATKLIEGHHHHHH | soluble
10 | MSLVEQLVKELSKGLNTRDYPEGFFKEHLAFRLKINKLEPVKHPHIPDINSLLGVEKQKEVLLRNTAQFVKGLPANDVLLWGARGTGKSSLVKALLGVFGKEGLRIVQVTKHEIPELADLYEVLRDKEEKFILFFDDLTFEPHEDAFRLLKSIMEGDVEERPQNVLFTQLQTGDTSLRIWKKRINFRRKHSTKSFL | not soluble
11 | MSLVETPKCTCGNHGVMNKKEKIIFACSGASNVGELSNAAAVRLTKEGFGNKACTASLAIKTPSVMERVENAGEIVVIDGCPVSCAKRIADNSGVKVDQYIIITELGINKISDMDILDEDITKTVSAVKDGKSVCLDRKRENHKGSGCNCGCESKEGHHHHHH | not soluble
12 | MSLVHNPDNTKLSDATFVIFDIETTGLHGRYDDVIEFSARKIKNNSEIDHQQFFLKIDKPIPKTITEITKITDEMLEGGIDQQQGLEKIRNYLDDCVMVAHNGINFDLPFLQTQFEKYNIKPLTNPLIDTLCLSWALNPLFSSHTLSNICSKLKLEFDDERLHRAEYDTEALKKVFFYFKKQLKEMGINTLTEIDQNLNKKCQIDLMKRVFTNTAIVYVKNQRGFQNLYEMLSIALTDHNANRPLVLASSLAKFRKSFLLTENPVQGDIFKAALTKPINELEKAIEKVDFVLISQPNAYLGYTLREGLKKELINDAIKLVIKTATKLKKLVAVASDAYFIHPWENEYYKAIVCAKGLGGKWHRHFNNKEKEQTVPEVFLHTTDEMLKRMSFLGEDIAYKLVVENTNKIVKLLDLNELVPTKNKLYPPVMQDSNQKLIDKTWKQAEKRYGKNLPKLIKERIEKEEGHHHHHH | soluble
13 | MSLVLKCSLCINDERITKILTVNGRPICKECKAFLEHPPDKIKIRKELEELLSQVDKAIVAYSGGKDSTVALYLAKEEYDIDVEAVMVDHGFMAPQAIENAKKVSEYLNVPLTIIREDYSEIFKDALLKAKSPCRKCSRRTMEALRKYALEKGYKYIISGHELPFGHHPYRLMSGGIIQIRLLSLMSEKERMEILKKLPFKLPELPGYTSNCLILGPALERYWEKHGYSFEHRRIAALVRYGLLDREKALKKVEKPKVPEWQWELVEKKLNLIVRSLEGHHHHHH | soluble
14 | MSLVTLKDIAAEAGVSIMTVSNVINGNHSKVSKNTIEKIEKIIQKYNYVPNLTARSLTAKSSKIIGIIVPIKGSFNNLFKDPYISELFGIIQNVVRENGYYLMVRSVKDVSDISALLKNWNMDGAIFLMPDYDNLIYSILKENKLPMVFLDSYSKIDNIISVGINDYKGGYIATRYLINNGHRKILFAGPCHKDGIPIPQIIKRLEGYKDALLESNIEFNESLIVDVEPNYEVGINLGRSICNKEFDVTAVFTTADIMGIGIIEGAKLNGKIVPNDLSVIGFDNLLPSVYVTPKLTTISQDIESKATKAVDLLIEYIEKGSVSNNKITLDVELVERQSVGQLSNEGHHHHHH | soluble
15 | MSLYGKRLVVFAPLYVSNYCVNNCTYCGYKHCNDELKRKKLNKEQLIEEVKVLESLGHKRIALEAGEDPVNAPLDYILDCIKSIYSIKFDNGSIRRINVNIAATSVEDYKRLKDAEIGTYILFQETYHKPTYERLHVSGPKHNYNYHTTAMHRAREAGIDDIGMGVLYGLYDYKYETLAMLMHAMDLEETTGVGPHTLSVPRIRPAENVSLENYPYLVDDEDFKKIVAILRLAVPYAGLILSTREEPGLRDEIIALGVSQVSTGSCTGVGGYSESYIDPEEKPQFEVGDHRSPVEMIESLMEAGYIPSYCTACYREGRTGERFMDIVKSGELYKICEANALITLKEFIDDYGTDRTREIGDKLIKKSIDEIDNESFRKSVEEKINKISNGTRDLRFEGHHHHHH | not soluble
16 | MSLYIHQTACISAQPAFADPASDHVAAAVDNKLYAIDSNYDSIPPNVLRRLGKAVKMGIATGHSLISKHPVDGIVLGTANGGLEDCIKFLNQIIEFEEGRLTPTNFVQSTTNAIAGQLGIMSSNKGYNITHVHRGLAFENALIDIEMLLNEYPSNTYLLGGVDEISAYNYTIEKLAGTYKSETISSAQLFSSQTTGTIAGEGAAMFLVNTNRLNAAAAIKGIKTYNNPSPEAIKKHLEDFLAKHLPQNEKIDVLFSGKNGDVCLNSFYEVCAQQLGKETTVCYYKQLTGDFPTVTALALWFATRFIEDSNNLPVLNIKKTGAVKNILLYNTYKGYQHSFILVSEGHHHHHH | not soluble
17 | MSLYQHGYHAGNFADVIKHITLTRLLAYLTHKDKPLFYLETHSGRGIYDLKDKQSLKTEEYKEGINPVWLDRENLPSLFLEYISVIKQINLNSTLSYYPGSPYFAINQLRSQDRLYLCELHPTEYNFLLKLPHFNKKVYVNHTDGVSKLNALLPPPEKRGLIFIDPSYERKEEYKEIPYAIKNAYSKFSTGLYCVWYPVVNKAWTEQFLRKMREISSKSVRIELHLNPLINEGMTGCGLWIINPPYTFPSEIKLVLETLTTYFNPGSSSYMIESGSKLCHGLKGIITITTDPNSSSVDKLAAALEHHHHHH | soluble
